From US12303551B2, “Cellular immunotherapy compositions and uses thereof” (CERO THERPEUTICS HOLDINGS, INC., priority 2018, dated 2025)

What was measured:
[1] = test system: HCC827 NSCLC adenocarcinoma cells; assay: FACS phagocytosis assay with pHrodo-red labeled HCC827 cells; type: cell-based; conditions: for % phagocytosis (pHrodo-positivity): overnight co-culture with HCC827
Excerpt: FIG. 67B is a bar graph of frequency of phagocytosis among CER-modified CD4+_T cells vs. CER-modified CD8+ T cells
CD4+ or CD3+ T cells were purified from PBMCs, activated, and transduced with lentiviral vector comprising hCER104 nucleic acid. hCER104 is a human CER104 construct comprising a Tim4 binding domain, a Tim4 transmembrane domain, TLR8 engulfment signaling domain, and Dap12 engulfment signaling domain and comprises an amino acid sequence of SEQ ID NO:176. HCC827 cells harbor an EGFR mutation and treatment with EGFR inhibitor osimertinib induces exposure of phosphatidylserine on the cell surface. Transduced T cells were expanded. CER-modified T cells were co-cultured with pHrodo-red labeled HCC827 NSCLC adenocarcinoma cells overnight and evaluated by FACs for pHrodo-positive signals to detect phagocytosis of HCC827 target cells (see, FIG. 67A, box inside FACs plot indicates % phagocytosis). T cell subsets were analyzed for their capacity to phagocytosis using antibody staining. Frequency of in vitro phagocytosis among CD4+ CER-modified T cells was much higher than CD8+ CER-modified T cells (see, FIG. 67B).

[2] = test system: HCC827 NSCLC adenocarcinoma cells; assay: HCC827 viability (MTT) and phase contrast microscopy after co-culture with or without osimertinib; type: cell-based
Protocol: Assays were performed at an effector to target cell ratio of 5:1 in the presence or absence of an EGFR small molecular inhibitor (1 nM osimertinib). Co-culture of hCER104 modified CD3+ T cells was compared with co-culture of purified hCER104 modified CD4+ T cells. Cell viability was quantified using 3-(4,5-dimethylthiazol-2-yl)-2,5-diphenyltetrazolium bromide (MTT) assay.
Specific target cell killing of HCC827 observed in hCER104 modified T cells in the presence of osimertinib.
hCER104 modified CD3+ T cells and hCER104 modified CD4+ T cells were co-cultured with HCC827 NSCLC adenocarcinoma cells treated for 48 hours with or without 1 nM osimertinib at an effector to target cell ratio of 5:1. Mock transduced T cells were used as control.

[3] = test system: HCC827 NSCLC cells; assay: FACS phagocytosis assay of TAMRA-SE labeled HCC827 cells with or without bafilomycin; type: cell-based; conditions: CER-modified T cells, osimertinib treated HCC827, FACS
Excerpt: FIGS. 73A-73B show ablation of CER-induced phagocytosis by bafilomycin, an inhibitor of phagolysosome V-ATPase. CER104-modified CD4+ T cells and mock transduced CD4+ T cells (control) were co-cultured with HCC827 cells that were labeled with TAMRA-SE fluorescent dye and treated with osimertinib. Phagocytosis was quantified by FACs.
T cells were transduced with lentiviral vector comprising hCER104 nucleic acid as described in Example 6. hCER104 modified T cells were co-cultured with HCC827 adenocarcinoma cells with or without osimertinib. […] FACs plots from in vitro phagocytosis assays in hCER104 modified T cells or mock transduced control T cells are shown in FIG. 73B.

[4] = test system: HPV+ SCC152/luceriferase+ cells; assay: SCC152/luciferase xenograft in NSG mice, bioluminescence imaging; type: in vivo; conditions: CER CD4+ T cells added 1:1 to HPV E7 CD8+ T cells
Protocol: HPV+ SCC152 engrafted NSG mice were treated with HPV E7 TCR modified CD8+ T cells+CD4+ T cells (mock transduced), HPV E7 TCR modified CD8+ T cells+hCER104 modified CD4+ T cells, or untreated. FIG. 74B is a graph of mean values of bioluminescence signal intensities obtained for treatment group.
HPV+ SCC152/luceriferase^+ cells were engrafted in NSG mice. Once tumors were established, mice were treated with HPV E7 specific TCR (SEQ ID NO:84) modified CD8+ T cells+mock transduced CD4+ T cells, HPV E7 specific TCR modified CD8+ T cells+hCER104 (SEQ ID NO:176) modified CD4+ T cells, or untreated (n=5 per treatment group). HPV E7 CD8+ T cells and hCER104 CD4+ T cells were administered at a 1:1 ratio. Tumor volume was measured over time by bioluminescence imaging (see, FIGS. 74A-74B).

[5] = test system: E6/E7-specific human TCR/NFAT reporter cell line; assay: Antigen cross-presentation assay with E6/E7 TCR Jurkat NFAT luciferase reporter cells; type: cell-based; conditions: CD4+ and CD8+ CER T cells after phagocytosing HPV+ tumor cells; compared to mock transduced T cells
Protocol: In a phagocytic assay step, CD4+ and CD8+ T cell lines expressing CERs were co-cultured with the CD4+ and CD8+ T cells expressing HPV E7 specific TCR and SCC152 (HPV+) cells overnight. The following day CER+ T cells were subsequently FACS-sorted. FACS plot depicts CT violet^+ CERs. Following FACS purification, antigen presentation of HPV oncoproteins was evaluated. CER-expressing cells were co-cultured at a 1:2 ratio with E6 & E7-specific TCR/NFAT reporter cell lines, and NFAT activation measured over time using a plate reader.
CER-expressing CD4^+ and CD8^+ T cell lines, after phagocytosing HPV^+ tumor cells, are capable of cross-presentation of E7 HPV oncoproteins to E7 TCR/NFAT reporter-expressing T cells as measured by NFAT activation.
CD4+ and CD8+ CER-expressing T cell lines were established from human PBMCs. […]
For assessing MHC-I cross-presentation, SCC152 HPV^+ cells were co-cultured overnight with CER123-expressing CD4+ and CD8+ T cells or mock-transduced (vector only) T cells in the presence of T cells expressing an E7-specific TCR. […] NFAT activation was assessed at serial time points (0, 6, 12, 24, and 72 hrs) by measuring luciferase activity in cell culture supernatants. […] Induction of E711-19-specific Jurkat T cells were quantified by luminescence of NFAT signaling at indicated time points and compared to Mock (vector-alone) transduced T cells (FIG. 63).

| Molecule | % phagocytosis (pHrodo-positivity) ([1]; CER-modified CD4+ T cells) | % phagocytosis (pHrodo-positivity) ([1]; CER-modified CD8+ T cells) | frequency of in vitro phagocytosis, CD4+ versus CD8+ CER-modified T cells ([1]; HCC827 target cells) | killing of HCC827 cells, phase contrast microscopy ([2]; 48 hours co-culture, CD4+ and CD3+ T cells, in the presence of osimertinib) | HCC827 cell viability (MTT), CD4+ versus CD3+ CER-modified T cells ([2]; 48 hours, effector to target 5:1, with or without 1 nM osimertinib) | phagocytosis of fluorescent dye-labeled HCC827 cells [3] | tumor killing (bioluminescence) [4] | cross-presentation of HPV E7 oncoproteins (NFAT luminescence) [5] |
| --- | --- | --- | --- | --- | --- | --- | --- | --- |
| hCER104: human CER104 construct: Tim4 binding domain, Tim4 transmembrane domain, TLR8 and Dap12 engulfment signaling domains; SEQ ID NO:176 (protein, hCER104) ETVVTEVLGHRVTLPCLYSSWSHNSNSMCWGKDQCPYSGCKEALIRTDGMRVTSRKSAKYRLQGTIPRGDVSLTILNPSESDSGVYCCRIEVPGWFNDVKINVRLNLQRASTTTHRTATTTTRRTTTTSPTTTRQMTTTPAALPTTVVTTPDLTTGTPLQMTTIAVFTTANTCLSLTPSTLPEEATGLLTPEPSKEGPILTAESETVLPSDSWSSVESTSADTVLLTSKESKVWDLPSTSHVSMWKTSDSVSSPQPGASDTAVPEQNKTTKTGQMDGIPMSMKNEMPISQLLMIIAPSLGFVLFALFVAFLHHLFYWDVWFIYNVCLAKVKGYRSLSTSQTFYDAYISYDTKDASVTDWVINELRYHLEESRDKNVLLCLEERDWDPGLAIIDNLMQSINQSKKTVFVLTKKYAKSWNFKTAFYLALQRLMDENMDVIIFILLEPVLQHSQYLRLRQRICKSSILQWPDNPKAEGLFWQTLRNVVLTENDSRYNNMYVDSIKQYYFLGRLVPRGRGAAEAATRKQRITETESPYQELQGQRSDVYSDLNTQRPYYK | 42.0% | 9.81% | much higher | specific cell killing | lower cell viability | exhibited phagocytosis | enhanced tumor killing in vivo | – |
| CER123: Chimeric engulfment receptor: Tim4 binding, Tim4 transmembrane, TLR2 and TRAF6 signaling; SEQ ID NO: 164 (protein, CER123, amino acids 1-22 are signal peptide) MSKGLLLLWLVTELWWLYLTPAASEDTIIGFLGQPVTLPCHYLSWSQSRNSMCWGKGSCPNSKCNAELLRTDGTRIISRKSTKYTLLGKVQFGEVSLTISNTNRGDSGVYCCRIEVPGWFNDVKKNVRLELRRATTTKKPTTTTRPTTTPYVTTTTPELLPTTVMTTSVLPTTTPPQTLATTAFSTAVTTCPSTTPGSFSQETTKGSAFTTESETLPASNHSQRSMMTISTDIAVLRPTGSNPGILPSTSQLTTQKTTLTTSESLQKTTKSHQINSRQTILIIACCVGFVLMVLLFLAFLHRFHGLWYMKMMWAWLQAKRKPRKAPSRNICYDAFVSYSERDAYWVENLMVQELENFNPPFKLCLHKRDFIPGKWIIDNIIDSIEKSHKTVFVLSENFVKSEWCKYELDFSHFRLFDENNDAAILILLEPIEKKAIPQRFCKLRKIMNTKTYLEWPMDEAQREGFWVNLRAAIKSMSLLNCENSCGSSQSESDCCVAMASSCSAVTKDDSVGGTASTGNLSSSFMEEIQGYDVEFDPPLESKYECPICLMALREAVQTPCGHRFCKACIIKSIRDAGHKCPVDNEILLENQLFPDNFAKREILSLMVKCPNEGCLHKMELRHLEDHQAHCEFALMDCPQCQRPFQKFHINIHILKDCPRRQVSCDNCAASMAFEDKEIHDQNCPLANVICEYCNTILIREQMPNHYDLDCPTAPIPCTFSTFGCHEKMQRNHLARHLQENTQSHMRMLA | – | – | – | – | – | – | – | enhanced cross-presentation efficiency |
